Columns and labels:
Format in all cases: binding
Skip = molecular target: T1, Skip (Homo sapiens, UniProt Q13573); experiment: Yeast two-hybrid analysis (β-galactosidase) of HDART-Skip interaction; parameters: expressed in transfected cells; host or cells: Saccharomyces cerevisiae Y190; settings: Gal4DBD-HDART and deletion mutants with Gal4AD-Skip; β-galactosidase activity
T1 sequence (Q13573 1-536): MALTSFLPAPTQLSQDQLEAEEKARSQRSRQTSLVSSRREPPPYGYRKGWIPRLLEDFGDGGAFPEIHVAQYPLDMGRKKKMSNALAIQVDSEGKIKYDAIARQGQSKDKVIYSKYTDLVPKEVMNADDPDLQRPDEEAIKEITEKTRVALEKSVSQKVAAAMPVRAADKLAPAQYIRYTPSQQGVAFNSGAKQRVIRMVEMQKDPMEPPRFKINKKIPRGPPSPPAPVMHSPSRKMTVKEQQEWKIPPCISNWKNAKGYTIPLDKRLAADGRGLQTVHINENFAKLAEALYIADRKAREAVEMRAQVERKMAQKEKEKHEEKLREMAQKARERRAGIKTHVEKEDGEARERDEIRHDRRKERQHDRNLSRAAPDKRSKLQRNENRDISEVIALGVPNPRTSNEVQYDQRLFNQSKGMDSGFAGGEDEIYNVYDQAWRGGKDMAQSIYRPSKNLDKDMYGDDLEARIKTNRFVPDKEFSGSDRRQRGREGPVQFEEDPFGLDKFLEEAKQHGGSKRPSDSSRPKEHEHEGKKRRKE
Text: In order to isolate a protein that binds to this HDART, a yeast two-hybrid system was used. More particularly, a yeast MATCHMAKER two-hybrid analysis kit (Clontech) was used for the isolation. The ORF full length of HDART was inserted so that it and the Gal4 DNA binding domain reading frame were aligned in the same frame with each other within pAS-1 vector (Clontech). This bait plasmid was transformed into Saccharomyces cerevisiae Y190 along with pACT2 prey plasmid whose HeLa cDNA (Clontech) had been sub-cloned. The screening for clones into which both plasmids were introduced was carried out according to the kit protocol. […]
For mapping of regions on the Skip taking part in the interaction with HDART, a series of deletion mutations where various regions on Skip (N-terminus region (codon 1-220), nuclear hormone binding region (NHR binding, codon 221-388), and tran-activation region (TA, codon 438-536) were deleted, and the interaction between HDART and mutated Skip was analyzed according to the yeast two-hybrid analysis using Gal4DBD-HDART as set forth in Example 2. The results of the analysis are shown in FIG. 5A. The sign “+” indicated at the right of FIG. 5A indicates the observation of the interaction by the filter lift analysis of β-galactosidase activity, and the number of “+” indicates the relative intensity of the interaction. […]

HDAC4 = molecular target: T2, HDAC4 (Homo sapiens, UniProt P56524); experiment: Immunoprecipitation of GFP-HDART with Flag-HDAC in 293 cells; settings: co-transfected 293 cells; anti-FLAG immunoprecipitation
T2 construct: expressed in transfected cells; host or cells: 293 cells
T2 sequence (P56524 whole entry, species assumed): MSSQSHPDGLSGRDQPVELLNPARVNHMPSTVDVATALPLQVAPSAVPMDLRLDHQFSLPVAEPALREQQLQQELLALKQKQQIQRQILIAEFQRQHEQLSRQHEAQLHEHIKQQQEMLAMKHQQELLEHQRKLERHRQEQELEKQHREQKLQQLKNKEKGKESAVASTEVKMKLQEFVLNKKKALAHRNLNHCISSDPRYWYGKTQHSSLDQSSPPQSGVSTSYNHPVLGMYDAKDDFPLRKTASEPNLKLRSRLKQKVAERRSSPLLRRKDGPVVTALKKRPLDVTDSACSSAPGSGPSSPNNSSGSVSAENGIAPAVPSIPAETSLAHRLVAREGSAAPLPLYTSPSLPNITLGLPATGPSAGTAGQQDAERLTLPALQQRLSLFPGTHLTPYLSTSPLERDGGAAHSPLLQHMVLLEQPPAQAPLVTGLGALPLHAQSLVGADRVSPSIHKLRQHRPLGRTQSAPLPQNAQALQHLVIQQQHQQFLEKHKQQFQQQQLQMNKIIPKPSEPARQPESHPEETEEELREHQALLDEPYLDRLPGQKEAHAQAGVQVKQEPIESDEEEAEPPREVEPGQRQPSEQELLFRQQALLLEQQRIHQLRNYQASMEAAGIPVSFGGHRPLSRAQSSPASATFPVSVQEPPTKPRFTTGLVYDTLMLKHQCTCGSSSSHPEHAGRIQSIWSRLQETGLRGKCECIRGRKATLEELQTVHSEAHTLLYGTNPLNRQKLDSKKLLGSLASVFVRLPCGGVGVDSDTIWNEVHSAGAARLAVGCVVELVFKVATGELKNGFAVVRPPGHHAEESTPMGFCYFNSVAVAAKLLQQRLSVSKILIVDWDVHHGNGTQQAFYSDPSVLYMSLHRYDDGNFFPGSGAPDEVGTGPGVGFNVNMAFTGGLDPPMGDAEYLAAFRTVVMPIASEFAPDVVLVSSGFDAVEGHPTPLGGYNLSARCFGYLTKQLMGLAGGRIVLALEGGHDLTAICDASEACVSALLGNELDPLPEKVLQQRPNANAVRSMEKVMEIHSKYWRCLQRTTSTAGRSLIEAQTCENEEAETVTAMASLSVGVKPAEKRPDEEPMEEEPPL
Method: (§1) Flag-HDACs expression vectors capable of expressing different types of HDAC (1, 3, 4 or 6) and a GFP-HDART expression vector were, respectively, co-transfected with 293 cells in the same manner as in Example 2, and cell extracts were prepared 24 hours after the transfection. The respective cell extracts were incubated with an anti-Flag antibody, followed by immunoprecipitation. The resulting immunoprecipitate was isolated with SDS-PAGE and an isolated pattern was transferred to a membrane, followed by immunoblotting with use of an anti-Flag antibody or […]. For reference, in order to confirm the expression of GFP-HDART protein in the respective cells, individual samples prior to the immunoprecipitation were similarly developed with SDS-PAGE to conduct immunoblotting with use of an anti-GFP antibody. […] The kinds of HDAC's from the left side of the figure are as follows: lane 1, HDAC1; lane 3, HDAC3; lane 4, HDAC4; and lane 5, HDAC6. It will be noted that lane 2 is for the sample in which GFP-HDART alone was expressed.

HDAC6 = molecular target: T3, HDAC6 (Homo sapiens, UniProt Q9UBN7); experiment: as above; settings: co-transfected 293 cells; anti-FLAG immunoprecipitation
T3 construct: expressed in transfected cells; host or cells: 293 cells
T3 sequence (Q9UBN7 1-1215): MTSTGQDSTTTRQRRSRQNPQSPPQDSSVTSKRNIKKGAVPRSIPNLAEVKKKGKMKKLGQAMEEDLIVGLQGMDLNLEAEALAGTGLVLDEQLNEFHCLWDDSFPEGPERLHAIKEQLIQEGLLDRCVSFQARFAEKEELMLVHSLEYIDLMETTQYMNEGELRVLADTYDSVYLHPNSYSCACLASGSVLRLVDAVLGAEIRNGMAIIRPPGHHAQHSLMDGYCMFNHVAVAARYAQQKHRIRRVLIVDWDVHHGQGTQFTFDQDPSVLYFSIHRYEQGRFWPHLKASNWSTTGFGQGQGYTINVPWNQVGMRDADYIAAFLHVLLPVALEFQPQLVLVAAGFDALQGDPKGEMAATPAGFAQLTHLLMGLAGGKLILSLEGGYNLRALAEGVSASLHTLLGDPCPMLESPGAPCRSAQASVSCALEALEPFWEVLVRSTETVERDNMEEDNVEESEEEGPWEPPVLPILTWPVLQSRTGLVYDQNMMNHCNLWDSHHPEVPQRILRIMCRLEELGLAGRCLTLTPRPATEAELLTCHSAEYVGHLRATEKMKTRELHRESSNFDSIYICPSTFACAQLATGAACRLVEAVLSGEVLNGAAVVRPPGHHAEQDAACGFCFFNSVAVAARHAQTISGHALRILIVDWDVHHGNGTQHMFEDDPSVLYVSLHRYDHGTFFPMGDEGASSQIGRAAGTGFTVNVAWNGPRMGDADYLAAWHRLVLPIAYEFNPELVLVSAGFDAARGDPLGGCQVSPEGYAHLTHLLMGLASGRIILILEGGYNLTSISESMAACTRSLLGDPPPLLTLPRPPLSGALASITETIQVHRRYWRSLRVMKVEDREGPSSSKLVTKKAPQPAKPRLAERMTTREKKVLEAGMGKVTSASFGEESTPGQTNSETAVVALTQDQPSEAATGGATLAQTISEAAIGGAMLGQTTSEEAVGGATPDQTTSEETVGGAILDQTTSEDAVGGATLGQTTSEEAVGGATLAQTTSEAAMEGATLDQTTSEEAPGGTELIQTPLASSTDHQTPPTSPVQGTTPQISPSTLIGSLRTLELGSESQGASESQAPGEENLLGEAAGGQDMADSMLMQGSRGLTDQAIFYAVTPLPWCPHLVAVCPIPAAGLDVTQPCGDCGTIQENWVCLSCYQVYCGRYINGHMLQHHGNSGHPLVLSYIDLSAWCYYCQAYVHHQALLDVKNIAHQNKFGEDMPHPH
Method: as §1

B1: HDART: HDAC associated repressor TPR protein, 855 amino acids, SEQ ID NO: 2; transcription repressing factor, used as fusions or expressed from vector (protein, listed as Homo sapiens)
chain: MVVMARLSRPERPDLVFEEEDLPYEEEIMRNQFSVKCWLRYIEFKQGAPKPRLNQLYERALKLLPCSYKLWYRYLKARRAQVKHRCVTDPAYEDVNNCHERAFVFMHKMPRLWLDYCQFLMDQGRVTHTRRTFDRALRALPITQHSRIWPLYLRFLRSHPLPETAVRGYRRFLKLSPESAEEYIEYLKSSDRLDEAAQRLATVVNDERFVSKAGKSNYQLWHELCDLISQNPDKVQSLNVDAIIRGGLTRFTDQLGKLWCSLADYYIRSGHFEKARDVYEEAIRTVMTVRDFTQVFDSYAQFEESMIAAKMETASELGREEEDDVDLELRLARFEQLISRRPLLLNSVLLRQNPHHVHEWHKRVALHQGRPREIINTYTEAVQTVDPFKATGKPHTLWVAFAKFYEDNGQLDDARVILEKATKVNFKQVDDLASVWCQCGELELRHENYDEALRLLRKATALPARRAEYFDGSEPVQNRVYKSLKVWSMLADLEESLGTFQSTKAVYDRILDLRIATPQIVINYAMFLEEHKYFEESFKAYERGISLFKWPNVSDIWSTYLTKFIARYGGRKLERARDLFEQALDGCPPKYAKTLYLLYAQLEEEWGLARHAMAVYERATRAVEPAQQYDMFNIYIKRAAEIYGVTHTRGIYQKAIEVLSDEHAREMCLRFADMECKLGEIDRARAIYSFCSQICDPRTTGAFWQTWKDFEVRHGNEDTIKEMLRIRRSVQATYNTQVNFMASQMLKVSGSATGTVSDLAPGQSGMDDMKLLEQRAEQLAAEAERDQPLRAQSKILFVRSDASREELAELAQQVNPEEIQLGEDEDEDEMDLEPNEVRLEQQSVPAAVFGSLKED
Q: Which results are given for B1?
A: interaction with Skip (Skip): able to directly interact with Skip; interaction with HDAC4 (HDAC4): exhibits interaction; interaction with HDAC6 (HDAC6): exhibits interaction

Reference: patent US8889408B2, “Factor taking part in transcription control” (Sony Corporation, priority 2002, dated 2014)
